{"source": "the RNAGym collection of RNA variant scans (doi:10.7554/elife.80360)", "parents": {"B1": {"name": "Hammerhead Ribozyme (parent)", "chain": "ACCGGAUGUGCUUUCCGGUCUGAUGAGUCCGUGAGGACGAAACAG"}}, "data": [{"variants_of": "B1", "assay": "self-cleavage, relative activity (ratio to wild type); higher = more cleavage; co-transcriptional", "values": [{"variant": "A1G G35A", "self-cleavage": 1.23}, {"variant": "A1G G35C", "self-cleavage": 1.04}, {"variant": "A1G G35U", "self-cleavage": 0.947}, {"variant": "A1G G36A", "self-cleavage": 1.21}, {"variant": "A1G G36C", "self-cleavage": 0.654}, {"variant": "A1G G36U", "self-cleavage": 1.02}, {"variant": "A1G G39A", "self-cleavage": 0.384}, {"variant": "A1G G39C", "self-cleavage": 0.394}, {"variant": "A1G G39U", "self-cleavage": 0.428}, {"variant": "A1G G45A", "self-cleavage": 1.11}, {"variant": "A1G G45C", "self-cleavage": 1.01}, {"variant": "A1G G45U", "self-cleavage": 1.13}, {"variant": "A1G U7A", "self-cleavage": 1.31}, {"variant": "A1G U7C", "self-cleavage": 1.39}, {"variant": "A1G U7G", "self-cleavage": 1.4}, {"variant": "A1G U9A", "self-cleavage": 1.83}, {"variant": "A1G U9C", "self-cleavage": 1.8}, {"variant": "A1G U9G", "self-cleavage": 1.58}, {"variant": "A1G U12A", "self-cleavage": 1.63}, {"variant": "A1G U12C", "self-cleavage": 1.71}, {"variant": "A1G U12G", "self-cleavage": 1.91}, {"variant": "A1G U13A", "self-cleavage": 1.96}, {"variant": "A1G U13C", "self-cleavage": 1.87}, {"variant": "A1G U13G", "self-cleavage": 1.97}, {"variant": "A1G U14A", "self-cleavage": 1.46}, {"variant": "A1G U14C", "self-cleavage": 1.19}, {"variant": "A1G U14G", "self-cleavage": 1.85}, {"variant": "A1G U19A", "self-cleavage": 0.511}, {"variant": "A1G U19C", "self-cleavage": 2.02}, {"variant": "A1G U19G", "self-cleavage": 0.61}, {"variant": "A1G U21A", "self-cleavage": 0.968}, {"variant": "A1G U21C", "self-cleavage": 0.949}, {"variant": "A1G U21G", "self-cleavage": 0.812}, {"variant": "A1G U24A", "self-cleavage": 1.78}, {"variant": "A1G U24C", "self-cleavage": 1.6}, {"variant": "A1G U24G", "self-cleavage": 1.68}, {"variant": "A1G U28A", "self-cleavage": 1.26}, {"variant": "A1G U28C", "self-cleavage": 1.79}, {"variant": "A1G U28G", "self-cleavage": 1.33}, {"variant": "A1G U32A", "self-cleavage": 1.68}, {"variant": "A1G U32C", "self-cleavage": 1.48}, {"variant": "A1G U32G", "self-cleavage": 1.45}, {"variant": "A1U", "self-cleavage": 0.853}, {"variant": "A1U A6C", "self-cleavage": 0.363}, {"variant": "A1U A6G", "self-cleavage": 0.459}, {"variant": "A1U A6U", "self-cleavage": 0.46}, {"variant": "A1U A23C", "self-cleavage": 0.385}, {"variant": "A1U A23G", "self-cleavage": 0.383}, {"variant": "A1U A23U", "self-cleavage": 0.306}, {"variant": "A1U A26C", "self-cleavage": 0.402}, {"variant": "A1U A26G", "self-cleavage": 0.34}, {"variant": "A1U A26U", "self-cleavage": 0.383}, {"variant": "A1U A34C", "self-cleavage": 0.492}, {"variant": "A1U A34G", "self-cleavage": 0.596}, {"variant": "A1U A34U", "self-cleavage": 0.452}, {"variant": "A1U A37C", "self-cleavage": 0.556}, {"variant": "A1U A37G", "self-cleavage": 0.734}, {"variant": "A1U A37U", "self-cleavage": 0.464}, {"variant": "A1U A40C", "self-cleavage": 0.387}, {"variant": "A1U A40G", "self-cleavage": 0.383}, {"variant": "A1U A40U", "self-cleavage": 0.349}, {"variant": "A1U A41C", "self-cleavage": 0.378}, {"variant": "A1U A41G", "self-cleavage": 0.414}, {"variant": "A1U A41U", "self-cleavage": 0.377}, {"variant": "A1U A42C", "self-cleavage": 0.395}, {"variant": "A1U A42G", "self-cleavage": 0.351}, {"variant": "A1U A42U", "self-cleavage": 0.279}, {"variant": "A1U A44C", "self-cleavage": 0.574}, {"variant": "A1U A44G", "self-cleavage": 0.971}, {"variant": "A1U A44U", "self-cleavage": 0.425}, {"variant": "A1U C2A", "self-cleavage": 0.672}, {"variant": "A1U C2G", "self-cleavage": 1.92}, {"variant": "A1U C2U", "self-cleavage": 0.598}, {"variant": "A1U C3A", "self-cleavage": 0.767}, {"variant": "A1U C3G", "self-cleavage": 0.418}, {"variant": "A1U C3U", "self-cleavage": 0.433}, {"variant": "A1U C11A", "self-cleavage": 1.01}, {"variant": "A1U C11G", "self-cleavage": 0.646}, {"variant": "A1U C11U", "self-cleavage": 0.423}, {"variant": "A1U C15A", "self-cleavage": 0.373}, {"variant": "A1U C15G", "self-cleavage": 0.355}, {"variant": "A1U C15U", "self-cleavage": 0.55}, {"variant": "A1U C16A", "self-cleavage": 0.419}, {"variant": "A1U C16G", "self-cleavage": 0.459}, {"variant": "A1U C16U", "self-cleavage": 0.431}, {"variant": "A1U C20A", "self-cleavage": 0.37}, {"variant": "A1U C20G", "self-cleavage": 0.412}, {"variant": "A1U C20U", "self-cleavage": 0.333}, {"variant": "A1U C29A", "self-cleavage": 0.435}, {"variant": "A1U C29G", "self-cleavage": 0.448}, {"variant": "A1U C29U", "self-cleavage": 0.595}, {"variant": "A1U C30A", "self-cleavage": 0.487}, {"variant": "A1U C30G", "self-cleavage": 0.414}, {"variant": "A1U C30U", "self-cleavage": 0.897}, {"variant": "A1U C38A", "self-cleavage": 0.528}, {"variant": "A1U C38G", "self-cleavage": 0.33}, {"variant": "A1U C38U", "self-cleavage": 0.583}, {"variant": "A1U C43A", "self-cleavage": 0.347}, {"variant": "A1U C43G", "self-cleavage": 0.448}, {"variant": "A1U C43U", "self-cleavage": 0.413}, {"variant": "A1U G4A", "self-cleavage": 0.342}, {"variant": "A1U G4C", "self-cleavage": 0.353}, {"variant": "A1U G4U", "self-cleavage": 0.309}, {"variant": "A1U G5A", "self-cleavage": 0.491}, {"variant": "A1U G5C", "self-cleavage": 0.287}, {"variant": "A1U G5U", "self-cleavage": 0.354}, {"variant": "A1U G8A", "self-cleavage": 0.687}, {"variant": "A1U G8C", "self-cleavage": 0.599}, {"variant": "A1U G8U", "self-cleavage": 0.728}, {"variant": "A1U G10A", "self-cleavage": 0.815}, {"variant": "A1U G10C", "self-cleavage": 0.6}, {"variant": "A1U G10U", "self-cleavage": 0.997}, {"variant": "A1U G17A", "self-cleavage": 0.421}, {"variant": "A1U G17C", "self-cleavage": 0.393}, {"variant": "A1U G17U", "self-cleavage": 0.357}, {"variant": "A1U G18A", "self-cleavage": 0.477}, {"variant": "A1U G18C", "self-cleavage": 0.39}, {"variant": "A1U G18U", "self-cleavage": 0.475}, {"variant": "A1U G22A", "self-cleavage": 0.372}, {"variant": "A1U G22C", "self-cleavage": 0.22}, {"variant": "A1U G22U", "self-cleavage": 0.33}, {"variant": "A1U G25A", "self-cleavage": 0.32}, {"variant": "A1U G25C", "self-cleavage": 0.357}, {"variant": "A1U G25U", "self-cleavage": 0.435}, {"variant": "A1U G27A", "self-cleavage": 0.437}, {"variant": "A1U G27C", "self-cleavage": 0.317}, {"variant": "A1U G27U", "self-cleavage": 0.417}, {"variant": "A1U G31A", "self-cleavage": 1.03}, {"variant": "A1U G31C", "self-cleavage": 0.621}, {"variant": "A1U G31U", "self-cleavage": 0.748}, {"variant": "A1U G33A", "self-cleavage": 0.651}, {"variant": "A1U G33C", "self-cleavage": 0.705}, {"variant": "A1U G33U", "self-cleavage": 0.972}, {"variant": "A1U G35A", "self-cleavage": 0.635}, {"variant": "A1U G35C", "self-cleavage": 0.47}, {"variant": "A1U G35U", "self-cleavage": 0.451}, {"variant": "A1U G36A", "self-cleavage": 0.537}, {"variant": "A1U G36C", "self-cleavage": 0.328}, {"variant": "A1U G36U", "self-cleavage": 0.438}, {"variant": "A1U G39A", "self-cleavage": 0.349}, {"variant": "A1U G39C", "self-cleavage": 0.356}, {"variant": "A1U G39U", "self-cleavage": 0.347}, {"variant": "A1U G45A", "self-cleavage": 0.409}, {"variant": "A1U G45C", "self-cleavage": 0.493}, {"variant": "A1U G45U", "self-cleavage": 0.585}, {"variant": "A1U U7A", "self-cleavage": 0.588}, {"variant": "A1U U7C", "self-cleavage": 0.555}, {"variant": "A1U U7G", "self-cleavage": 0.603}, {"variant": "A1U U9A", "self-cleavage": 0.565}, {"variant": "A1U U9C", "self-cleavage": 0.656}, {"variant": "A1U U9G", "self-cleavage": 0.348}, {"variant": "A1U U12A", "self-cleavage": 0.66}, {"variant": "A1U U12C", "self-cleavage": 0.546}, {"variant": "A1U U12G", "self-cleavage": 0.753}, {"variant": "A1U U13A", "self-cleavage": 1.02}, {"variant": "A1U U13C", "self-cleavage": 0.94}, {"variant": "A1U U13G", "self-cleavage": 0.812}, {"variant": "A1U U14A", "self-cleavage": 0.353}, {"variant": "A1U U14C", "self-cleavage": 0.531}, {"variant": "A1U U14G", "self-cleavage": 0.692}, {"variant": "A1U U19A", "self-cleavage": 1.1}, {"variant": "A1U U19C", "self-cleavage": 0.617}, {"variant": "A1U U19G", "self-cleavage": 1.28}, {"variant": "A1U U21A", "self-cleavage": 0.614}, {"variant": "A1U U21C", "self-cleavage": 0.379}, {"variant": "A1U U21G", "self-cleavage": 0.303}, {"variant": "A1U U24A", "self-cleavage": 1.04}]}]}
